Reference: the supplement of paper PMC9732359
± gives the uncertainty stated by the source.

Assay: protein stability index of a GFP-peptide fusion (yeast GPS) (PSI 1-4); higher = more stable; sorted into four equal gates, so the index is relative within each strain
Procedure, shortened: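 Mid-log yeast cultures in leucine-free medium, carrying a pooled plasmid library, were sorted into four equal gates by their GFP/Cherry fluorescence ratio. Each plasmid expressed Cherry along with GFP fused upstream of a tiled 17-residue yeast protein peptide. Plasmids recovered from each gate were PCR-amplified and Illumina-sequenced, with reads assigned to strains by barcodes. The protein stability index was obtained by summing each gate's read frequency weighted by its gate number.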

| Sequence | protein stability index (doa10∆) | protein stability index (pdr5∆) | protein stability index (san1∆) | protein stability index (ubr1∆) |
| --- | --- | --- | --- | --- |
| IHNYDSKKSTITVRYWL [RGR1] | 3 ± 0.087 | 2.88 ± 0.081 | 2.69 ± 0.067 | 3.09 ± 0.049 |
| IIANINSFTKGNVFSPI [SNU114] | 2.18 ± 0.085 | 2.54 ± 0.067 | 2.43 ± 0.05 | 2.21 ± 0.039 |
| IIDRGRNVLSASLDGTI [RPN14] | 3.1 ± 0.093 | 2.52 ± 0.065 | 2.97 ± 0.055 | 2.77 ± 0.044 |
| IIELENINAKMETRINI [YIL149C/MLP2] | 3.06 ± 0.091 | 2.63 ± 0.11 | 2.5 ± 0.069 | 2.62 ± 0.063 |
| IIFEIEKPLVVPVKLEE [RRP6] | 1.88 ± 0.079 | 2.28 ± 0.071 | 2.21 ± 0.12 | 2.14 ± 0.073 |
| IILLGVLEDCRHLPMYT [ITC1] | 1.37 ± 0.064 | 1.59 ± 0.054 | 2.44 ± 0.099 | 2.47 ± 0.067 |
| IIVKILYYRPHINKKSQ [GRR1] | 1.66 ± 0.096 | 2.63 ± 0.11 | 1.23 ± 0.18 | 2.51 ± 0.11 |
| IKAPTVAADGKLVTYIV [YLR335W/NUP2] | 1.61 ± 0.07 | 1.92 ± 0.059 | 1.55 ± 0.084 | 2.16 ± 0.048 |
| IKDLQRAINKVLCTRLR [SIR2] | 1.78 ± 0.063 | 1.33 ± 0.06 | 1.18 ± 0.11 | 1.54 ± 0.045 |
| IKELEHLHDAVFVNTGL [SWP82] | 2.94 ± 0.067 | 2.9 ± 0.058 | 3.06 ± 0.059 | 2.91 ± 0.05 |
| IKKEEGKIDEAADILCE [RPN5] | 3.1 ± 0.096 | 2.69 ± 0.12 | 2.95 ± 0.11 | 2.52 ± 0.069 |
| IKKFAKLHMGTEDVRLA [RPL31B] | 3.21 ± 0.21 | 3.21 ± 0.22 | 2.71 ± 0.15 | 2.73 ± 0.14 |
| IKKPTSAVVSSNASRRK [RPN4] | 2.47 ± 0.17 | 2.3 ± 0.17 | 2.36 ± 0.076 | 2.89 ± 0.27 |
| IKNFKSLLLSSSFKEDC [SSN2] | 2.82 ± 0.11 | 2.98 ± 0.094 | 2.96 ± 0.086 | 3.11 ± 0.086 |
| IKNLGLPSDRCSKAMGD [RPP1] | 3.36 ± 0.19 | 3.32 ± 0.13 | 3.25 ± 0.23 |  |
| IKVDGAVGNLGNAIEVT [RPL22B] | 1.74 ± 0.12 | 2.4 ± 0.076 | 1.8 ± 0.14 | 1.58 ± 0.047 |
| IKVLLRQNRRPELGDKF [RET1] | 3.15 ± 0.25 | 3.49 ± 0.18 | 3.36 ± 0.09 | 3.41 ± 0.092 |
| ILARNDEEMAVLTRMDE [SNF2] | 3.04 ± 0.071 | 2.87 ± 0.079 | 2.37 ± 0.084 | 3.15 ± 0.047 |
| ILDAICFVLGIASMSTV [SMC2] | 1.45 ± 0.046 | 1.77 ± 0.054 | 1.78 ± 0.067 | 1.67 ± 0.06 |
| ILDITDEELVSHFVSAV [RPP0] | 2.99 ± 0.12 | 2.88 ± 0.14 | 3.01 ± 0.13 | 3.05 ± 0.071 |

| Sequence | protein stability index (doa10∆) | protein stability index (pdr5∆) | protein stability index (san1∆) | protein stability index (ubr1∆) |
| --- | --- | --- | --- | --- |
| ILDPSTEYCVGDYVAYQ [YMR129W/POM152] | 2.83 ± 0.19 | 3.63 ± 0.18 | 2.47 ± 0.21 |  |
| ILEESLNAIILKLEKLN [SMC3] | 1.66 ± 0.061 | 1.72 ± 0.062 | 1.5 ± 0.14 | 2.24 ± 0.07 |
| ILGDLGKEFGTTPEKPE [FAS2] | 2.83 ± 0.087 | 2.69 ± 0.072 | 2.51 ± 0.057 | 2.78 ± 0.066 |
| ILGQTMSIGTGSFKVVK [RPO31] |  | 2.47 ± 0.13 | 1.97 ± 0.12 | 2.99 ± 0.15 |
| ILIESRIHRLARYYRTV [RPS13] | 2.45 ± 0.11 | 2.06 ± 0.06 | 2.74 ± 0.087 | 2.1 ± 0.051 |
| ILKKSLMTSHTKGDTSK [RTT102] | 2.6 ± 0.11 | 3.05 ± 0.085 | 2.81 ± 0.085 | 3.05 ± 0.13 |
| ILKTLERSICALGEFAD [YML031W/NDC1] | 2.58 ± 0.053 | 3.04 ± 0.075 | 3.05 ± 0.065 | 2.78 ± 0.05 |
| ILNELEVFIGRVKDQDG [YJR042W/NUP85] | 3.06 ± 0.14 | 3.05 ± 0.18 | 3 ± 0.12 | 2.59 ± 0.059 |
| ILNSHFDALRSLDDNST [YJL041W/NSP1] | 2.36 ± 0.054 | 2.07 ± 0.046 | 2.53 ± 0.064 | 2.55 ± 0.036 |
| ILQIREEIPSKSWDDSV [RRP6] | 2.27 ± 0.078 | 2.76 ± 0.092 | 2.32 ± 0.084 | 2.7 ± 0.055 |
| ILQNEHDYWNKIMQSIS [SRB4] | 2.14 ± 0.079 | 2.37 ± 0.062 | 1.92 ± 0.11 | 2.35 ± 0.082 |
| ILRDYGPQEAANAMNRM [RPO31] |  | 1.83 ± 0.26 | 2.86 ± 0.22 |  |
| ILRKSFDFLMNMPNCDY [RPN2] | 1.3 ± 0.099 | 1.1 ± 0.092 | 1.23 ± 0.12 | 1.16 ± 0.041 |
| ILRSIPDKLLGVILMFA [COB] | 2.35 ± 0.06 | 1.58 ± 0.046 | 1.65 ± 0.069 | 1.52 ± 0.054 |
| ILSEILCQINKCSTRGL [YML103C/NUP188] | 1.31 ± 0.088 | 1.55 ± 0.084 | 1.98 ± 0.097 | 2 ± 0.057 |
| ILSNVDLAMANSLRRVM [RPB3] | 2.75 ± 0.055 | 2.54 ± 0.047 | 2.66 ± 0.071 | 2.46 ± 0.037 |
| ILTIIEEYKKSLYAYCH [GRR1] | 2.38 ± 0.28 | 1.33 ± 0.21 | 2.27 ± 0.26 | 3.38 ± 0.24 |
| ILTTAVGLVSPSFMLKH [RPN1] | 1.96 ± 0.16 | 1.93 ± 0.12 | 1.3 ± 0.13 | 1.52 ± 0.077 |
| ILVLALEDLKDVYASKV [PRP8] | 2.29 ± 0.064 | 1.8 ± 0.057 | 2.85 ± 0.081 | 2.21 ± 0.066 |
